# Target: PRELP expressed on the cell surface of human cancer cells (human), P51888
# Experiment: cell-based or functional assay
# Chain of PRELP expressed on the cell surface of human cancer cells (human), P51888 (P51888 21-382): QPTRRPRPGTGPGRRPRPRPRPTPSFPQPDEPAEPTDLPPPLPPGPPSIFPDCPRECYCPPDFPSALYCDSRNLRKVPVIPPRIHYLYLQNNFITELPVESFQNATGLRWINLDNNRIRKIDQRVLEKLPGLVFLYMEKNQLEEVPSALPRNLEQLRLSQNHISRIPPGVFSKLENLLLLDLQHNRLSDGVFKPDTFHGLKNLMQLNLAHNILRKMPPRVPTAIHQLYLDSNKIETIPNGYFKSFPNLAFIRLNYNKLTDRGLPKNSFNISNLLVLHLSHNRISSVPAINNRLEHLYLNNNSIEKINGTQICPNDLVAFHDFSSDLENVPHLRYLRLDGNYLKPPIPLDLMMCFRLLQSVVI
binder,measurement,value
"anti-PRELP-SS clone 6G1-G11 (antibody, mouse IgM, V domains shown) VH: EVKLQQSGAELVKPGASVKLSCTASGFNIKDTYMHWVKQRPEQGLEWIGRIDPANGNTKYDPKFQGKATITADTSSNTAYLQLSSLTSEDTAVYYCARSTTVVVDYWGQGTTLTVSS VL: DILLTQTPAIKSASPGEKVTMTCSASSSISYMHWYQQKPGTSPKRWIYDTSKLASGVPARFSGSGSGTSYSLTISSMEAEDAATYYCHQRSSYPTFGAGTKLELK","apoptosis (Annexin V-FITC and propidium iodide staining) of CLL cells, 18 hrs, 2.5 ug antibody",16.9%
same,"apoptosis (Annexin V-FITC and propidium iodide staining) of CLL cells, 18 hrs, 5 ug antibody",32.2%
same,"apoptosis (Annexin V-FITC and propidium iodide staining) of CLL cells, 18 hrs, 7.5 ug antibody",39.2%

# — patent US20130039917A1
